# ± gives the standard deviation.
# Assay: protein stability index of a GFP-peptide fusion (GPS, HEK-293T) (PSI 1-6); higher = more stable
# Conditions: c terminus: a fixed tail appended
# 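Note: 24-mer peptide tiles fused after GFP, lentivirally expressed, FACS-sorted into six equal bins by GFP/DsRed ratio, decoded by Illumina sequencing, PSI is the read-weighted mean bin number.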
Sequence,protein stability index (treatment: DMSO),"protein stability index (treatment: MLN4924 1 uM, 8 h)"
MSLHGASGGHERSRDRRRSSDRSR [BTBD10],5.05 ± 0.16,5.19 ± 0.22
QYYRWLNYGGVIKNYFQHREFSFT [PRIM1],2.34 ± 0.64,1.98 ± 0.47
YSECIVTVGGEERVSRKPTAAMRC [GAN],3.56 ± 0.32,3.85 ± 0.66
RGSKMFKLRQMRVEKFIYENHPDV [MYOZ1],2.9 ± 0.37,2.52 ± 0.12
IFSQSSALILHQRIHSGKKPYACD [ZNF396],2.32 ± 0.097,2.53 ± 0.24
REARKRALARKQAQEQLRPQTPEP [RSPH3],5.04 ± 0.28,5.12 ± 0.15
LPNFAFSVPLAYFLLSQQTDLPEC [TCF25],2.72 ± 1.8,2.94 ± 0.38
RALRKMVSNMSGPSGEEEAKVGPG [CBY2],4.82 ± 0.23,4.87 ± 0.25
KAIKARGEVIHCKLRAMKELSEAA [STX11],3.32 ± 0.29,3.6 ± 0.2
LAMGTVSLGQLPLPPIPHVFSAGT [PLAGL1],2.24 ± 0.26,2.4 ± 0.34
ASSPSIRQKKLMHKLQEEKAFREE [CCDC70],4.24 ± 0.17,4.66 ± 0.14
SNVSSSGSINLLESPQLATLAEDV [MAP2],5.03 ± 0.22,5.17 ± 0.24
GTAHIPPTMHLESPALQVMGPAQE [ZNF449],4.78 ± 0.25,4.73 ± 0.17
AMFRLEHGEADRSTLKKALPTLSH [YJU2B],3.33 ± 0.16,3.38 ± 0.17
RHYAYLRDSLSHLVPALRLPGRKL [INTS4],2.31 ± 0.16,2.49 ± 0.45
TLLHFSAARGKERCVRVFLEHGAD [ASB7],2 ± 0.2,2.21 ± 0.3
HVEVARLLLENGAGINTHSNEFKE [ANKRD17],3.69 ± 0.39,3.39 ± 0.22
IEREHLIQLRRWQETRGELQCRSP [TBC1D10A],3.88 ± 0.2,3.82 ± 0.24
SSWPFSIQDVVQPLTLQVQRPLVS [AUP1],2.77 ± 0.32,3.03 ± 0.2
SSDSVGGFRYSERYDPEPKSKWDE [CLINT1],4.98 ± 0.29,4.95 ± 0.091
GTKCHGCDFKIDAGDRFLEALGFS [PDLIM7],2.63 ± 0.22,2.42 ± 0.36
PGHIGPPGPTGPKGISGHPGEKGE [EMID1],5.59 ± 0.17,5.07 ± 0.35
QYWLDGKIIAVGVIDILPNCVSSV [ATE1],2.93 ± 0.54,2.95 ± 0.66

Sequence,protein stability index (treatment: DMSO),"protein stability index (treatment: MLN4924 1 uM, 8 h)"
CPEGLEELLSAPPPDLGAQRRHGW [SPSB2],3.8 ± 0.34,3.83 ± 0.25
CTNTYVTGLSMIANGGAICAVTFF [OR4A15],3.25 ± 0.52,3.33 ± 0.38
RDSTARRPRPQGRSVSEPRDQHPQ [RTN2],5.305 ± 0.037,5.23 ± 0.098
KERALSAPWLSLFPPEGNMEDKEM [ZNF263],4.82 ± 0.057,4.72 ± 0.18
HTEASAQRSHMGKLKEPQPQDHKP,5.24 ± 0.71,5.24 ± 0.33
CLSCRLFYFKLTDLYKKVKKNSSP [CRY1],2.42 ± 0.11,2.08 ± 0.44
EPSFAQFSQEIGLASLGASEEAVQ [TPH1],5.17 ± 0.61,4.99 ± 0.37
GFTDRREARKYASNLLKAGFIRHT [DVL3],2.66 ± 0.28,2.71 ± 0.32
HVKEQLPCAGLNCQALDANLDANL [TLE6],4.42 ± 0.19,4.64 ± 0.24
MQVLGPEDLQSIIYKLEEHEEFFP [CEP70],2.99 ± 0.53,3.41 ± 0.39
RAPAEKPRGARCSNGFPERDPPRP [GCH1],4.2 ± 0.3,4.43 ± 0.17
RDANGWTLLHFSAARGKERCVRVF [ASB7],2.29 ± 0.29,2.43 ± 0.43
ASRTSTIFLNGNRERPLNVFCDME [TNXB],3.09 ± 0.42,3.07 ± 0.34
NDFWRIEVVNRKFGNRIKVLRSRI [POMT2],2.19 ± 0.6,2.17 ± 0.48
ANQLIDIISSDELNVRSEEQVFNA [KLHL20],4.42 ± 0.21,4.34 ± 0.25
NEIIKKLQGDLKTLMGKLKLKNTV [SASS6],–,2.21 ± 0.35
WLNKEKGIFKIEDSAQVARLWGIR [SPDEF],2.63 ± 0.32,2.35 ± 0.17
TPRSPEGTTEAATQDGKEQPELPC [PXN],5.38 ± 0.22,5.36 ± 0.23
LMVDFAQERQMLQALKFLPVPSAP [FSD1],2.21 ± 0.081,2.22 ± 0.3
WFPLHLSRILKKTVYNEMDKNRCE [EDNRA],2.6 ± 0.84,1.98 ± 0.4
APNAWQVIKGVLFRIFIIWAISSW [CLPTM1],2.94 ± 0.19,2.89 ± 0.53
LDYTADEDGVWYSVAPMNVRRGLA [KLHL12],2.41 ± 0.81,2.99 ± 0.47
YAIKRSKKPLAGSVDEQNALREVY [WEE1],3.3 ± 0.32,3.16 ± 0.25

Sequence,protein stability index (treatment: DMSO),"protein stability index (treatment: MLN4924 1 uM, 8 h)"
DLGHVTRISSPQVEEGDSRFLANE [WEE1],4.88 ± 0.29,4.96 ± 0.27
QETPYLVKLPLPAERVTLADFKGV [DVL3],3.25 ± 0.3,3.49 ± 0.18
LEQTAREILTLLQGVHQGAGFQDI [TSN],3.07 ± 0.32,2.81 ± 0.38
STRPEEGCSLHEEDTQRHETYHQQ [TCAP],5.47 ± 0.21,5.47 ± 0.2
HSDPEESFARDLPDFPSINMDPAG [RETREG3],5.19 ± 0.25,5.22 ± 0.16
DTFKVPKEMFTVGCCVFAFLVGLL [SLC6A17],2.3 ± 0.51,2.21 ± 0.6
HPTPFLAFLRRVKTCNPPDAGPMV [PTPRD],2.37 ± 0.12,2.26 ± 0.18
AYDYAKEVNSAEELEGLIADPDEM [FEM1C],5.68 ± 0.13,5.51 ± 0.56
VTAKTAPDVLRTKPAFIGKTNLDG [PTPRD],3.73 ± 0.4,4.06 ± 0.35
SSFFFSGVFVGVISFGQLSDRFGR [SLC22A15],2.96 ± 0.94,3.021 ± 0.018
GGFDGSRRHTSMERYDPNIDQWSM [KLHL12],3.76 ± 0.28,3.89 ± 0.45
GKGSGGNAGSYIPSYTSWYPSAHQ [DLX1],2.56 ± 0.43,2.69 ± 0.48
AGGSARRPDTGDDAAGHGFCYCAG [GMCL1],4.11 ± 0.46,4.13 ± 0.19
RLQVKEHQHEEIQNVRNHIHSCFS [ATL3],3.21 ± 0.17,3.23 ± 0.21
KDLILRFCIDSENRIGNSGVEEIK [STK38L],2.472 ± 0.02,2.85 ± 0.42
VFIFYYVVEEILELHIHRLRYLSS [PKD2L1],2.8 ± 0.091,3.07 ± 0.51
QIRDWRGGRLENQKPRGLEGGVLR [ZSWIM9],3.3 ± 0.54,3.57 ± 0.15
SVAVAARHAQTISGHALRILIVDW [HDAC6],2.82 ± 0.73,2.62 ± 0.63
HTGLKPYECGVCAKKFMWRDSFMR [ZBTB22],2.65 ± 0.52,2.44 ± 0.6
VYDQAVSIFYDLPQGSGFCLGQLN [SMAD6],2.03 ± 0.24,2.16 ± 0.32
AYDWVGRPIPTPVGSVHVDSGASA [CSNK1G1],3.94 ± 0.29,4.08 ± 0.16
QSIEYAGQQDQVKLHDFFSYLMDH [PPEF2],2.94 ± 0.26,2.92 ± 0.49
EITTQFLIYASYFALIAVVFLASG [SLC19A2],3.12 ± 0.9,3.33 ± 0.31

Sequence,protein stability index (treatment: DMSO),"protein stability index (treatment: MLN4924 1 uM, 8 h)"
PEEKIWEELSVLEVFEGREDSIFG [MAGEA6],4.23 ± 0.29,4.17 ± 0.39
ASEEGSESEGSESSGRSCRNERSI [SMG5],5.54 ± 0.3,5.45 ± 0.31
MVLAPVFGYLGDRYNRKYLMCGGI [SPNS1],2.61 ± 0.058,2.5 ± 0.84
EDYSAEYIIQQGGWGTVFSLESEE [BCL2L13],4.17 ± 0.29,3.96 ± 0.46
YVFFVLAVMEHAESKMYATSPYSD [PTPRD],3.02 ± 0.82,3.28 ± 0.78
TVRGLHCMCTVGERLYVIGGNHFR [KLHL13],2.12 ± 0.26,2.18 ± 0.2
RKLSPTEPKNYGSYSTQASAAAAT [SCAMP3],4.37 ± 0.17,4.38 ± 0.14
DEVIDVMQENITKVIERGERLDEL [VAMP4],4.77 ± 0.32,4.88 ± 0.28
VVNKYQINGLQAWLLTHLLWFANA [DHCR7],2.9 ± 0.28,2.75 ± 0.34
LRELGHAEHEITELTATFTKFDRD [PKD2L1],4.48 ± 0.28,4.59 ± 0.25
VSCLGLGTWVTFGGQITDEMAEQL [KCNAB2],2.32 ± 0.27,2.51 ± 0.3
HRRIHTGEKPYECQDCGRAFNQNS [ZNF8],3.75 ± 0.53,4.1 ± 0.27
VKVIMDALDERAKVLHEDKQTREQ [TRIM29],3.84 ± 0.098,3.84 ± 0.39
SRQLLPGDEFSLREHELLCRADHG [ISL2],4.19 ± 0.17,4.27 ± 0.089
GVMLYTLLVGRYPFHDSDPSALFS [TRIB1],2.52 ± 0.37,2.7 ± 0.46
KAMESQRAYRFVQGKDWGFKKFIR [SPOPL],2.22 ± 0.38,2.09 ± 0.21
PSGSSGSLSTSSSSSPPGTPSPAD [CEBPB],5.53 ± 0.31,5.46 ± 0.069
CEERWLVIDRKVYNISEFTRRHPG [FADS1],2.1 ± 0.3,2.15 ± 0.33
LQDMLDGFIKKFVLCPECENPETD [EIF5],3.19 ± 0.43,3.34 ± 0.12
ATFVDKKRDLLGALKYWKKAMNMR [FEM1C],1.95 ± 0.17,2.13 ± 0.46
TDFKDKIVLDVGCGSGILSFFAAQ [CARM1],2.3 ± 0.43,2.27 ± 0.27
